According to the RNAGym collection of RNA variant scans (doi:10.1073/pnas.2313332121):

B1: TPR t1 (parent)
chain: GACCAAUCUGCCCUCAGAGCUCGAGAACAUCUUCGGAUGCAGAGGAGGCAGGCUUCGGUGGCGCGAUAGCGCCAACGUCCUCAACCUCCAAUGCAUCCCACCACAUGAUGAUGCCUGAAGAGCCUUGGUUUUUUG

Variants of: B1
Assay: polymerase ribozyme fitness, log enrichment relative to wild type (log ratio); higher = more active; in vitro selection for triplet polymerase activity
Outline: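 Streptavidin-bead capture of gel-excised extended constructs, followed by RT-PCR, closed a single triplicate in vitro selection round. That round began by annealing PCR-built, transcribed mutant libraries of each subunit of a heterodimeric triplet polymerase ribozyme with a biotinylated primer, the partner subunit and triplets, then incubating them frozen at −7 °C. After Illumina sequencing of inputs and outputs, genotypes needed ≥10 input reads and ≥1 read per output. Fitness is the base-2 logarithm of genotype enrichment over wild-type enrichment, using inverse-variance-weighted replicate averages.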

Variant | polymerase ribozyme fitness (log ratio)
GACCAAUCUGCCCUCAGAGCUCGAGAACAUCUUCGGAUGCAGAGGAGGCAGGCUUCGGUGGCGCGAUAGCGCUAACGUCCUCAUCCUCCAAUGCAUCCCACCACAUGAUGAUGCCUGAAGAGCCUUGGUUUUUUG [C73U A84U] | -0.363
GACCAAUCUGCCCUCAGAGCUCGAGAACAUCUUCGGAUGCAGAGGAGGCAGGCUUCGGUGGCGCGAUAGCGCCAACGUUCUCAACCUCCAAUGCAUCCCACUACAUGAUGAUGCCUAAAGAGCCUUGGUUUUUUG [C79U C102U G117A] | -3.4
GACCAAUCUGCCCUCAGAGCUCGAGAACAUCUUCGGAUGCAGAGGAGGCAGGCUUCGGUGGCGCGAUAGCGCCAACGUCCUCAACCUCCAAUGCAUUCCACCACAUGAUGAUGCCUGAAGAGGCUAGGUUUUUUG [C97U C123G U126A] | 0.329
GACCAAUCUGCCCUCAGAGCUCGAGAACAUCUUCGGAUGCAGAGGAGGCAGGCUUCGGUGGCCCGAUAGCGCCAACGUCCUCAACCUCCAAUGCAUCCCACCACAUGAUGAUGCCUGAAGAGCCUUGGUCUUUUG [G63C U130C] | -1.1
GACCAAUCUGCCCUCAGAGCUCGAGAACAUCUUCGGAUGCAGUGGAGGCAGGCUUCGGUGGCGCGAUAGCGCCAACGUCCUCAACCGCCACUGCGUCCCACCACAUGAUGAUGCCUGGAGAGCCUUGGUUUUUUG [A43U U87G A91C A95G A118G] | -1.27
GACCAAUCUGCCCUCAGAGCUCGAGAACAUCUUCGGAUGCAGAGGAGGCAGGCUUCGGUGACGCGAUAGCGCCAACGUACUCAACCUCCAAUGCAUCCCACCAAAUGAUGUUGCCUGAAGAGCCUUGGUUUUUUG [G61A C79A C104A A111U] | -5.96
GACCAAUCUGCCCUCAGAGCUCGAGAACAUCUUCGGAUGCAGAGGAGGCAGGCUUCGGUGCCGCGAUAGCGCCAACGUCCUCAACCUCCAAUGCAUUCCACCACAUGAUGAUGCCUGAAGAGCCUUGGUUUUUUG [G61C C97U] | -2.51
GACCAAUCUGCCCUCAGAGCUCGAGAACAUCUUCGGAUGCAGAGGAGGCAGGUUUCGGUGGCCCGAUAGCGCCAACGUCCUCAACCUCCAAUGCAUCGCACCACAUGAUGAUGCCUGAAGAGCCUUGGUUUUUUG [C53U G63C C98G] | -6.12
GACCAAUCUGCCCUCAGAGCUCGAGAACAUCUUCGAAUGCAGAGGAGGCAGGCUUCGGUGGCGCGAUAGCGCCAACGUCCUCAACCUGCAAUGCAUCCCACCACAUGAUGAUGCCUGAAGAGCCUUGGUUUUUUG [G36A C88G] | -2.65
GACCAAUCUGCCCUCAGAGCUCGAGGACAUCUUCGGAUGCAGAUGAGGCAGGCUUUGGUGGCGCGAUAGCGCCAACGUCCUCAACCUCCAAUGCAUCCCACCACAUGAUGAUGCCUGAAUAGCCUUGGUAUUUUG [A26G G44U C56U G120U U130A] | -2.98
GACCAAUCUGCCCUCAGGGCUCGAGAACAUCUUCGGAUGCAGAGGAGGCAGGCUUCGGUGGUGCGAUAGCGCCCACGUCCUCAACCUCCAAUGCAUCCCACCACAUGAUGAUGCCUGAAGAGCCUUGGUUUUUUG [A18G C62U A74C] | -5.71
GACCAAUCUGCCCUCAGAGCUCGAGAACAUCUUCGGAUGCAGAGGAGGCAGGCUUCGGUGGUGCGAUAGCGCCAACGCCCUCAACCUCCAAUGCAUCCCACCACACGAUGAUGCCUGAAGAGCCUUGGUUUUUUG [C62U U78C U106C] | -0.597
GACCAAUCUGCCCUCAGAGCUCGAGAACAUCUUCGGAUGCAGAGUAGGCAGGCUUCGGUGGCGCGAUAGCGUCAACGGCCUCAACCUCCAAUGCAUCCCAACACAUGAUGAUGCCUGAAGAACCUUGGUUUUUUG [G45U C72U U78G C101A G122A] | -2.81
GACCAAUCUGCCCUCAGAGCUCGAGAACAUCUUCGGAUGCAGAGGAGGCAGGCUUCGGUGGCGUGAUAGCGCCAACGUCCUCAACCUCCAAUGCAUCCCACCACAUGAUGAUGCCUAAAGAGCCUUGGUUUUUUG [C64U G117A] | -1.12
GACCUAUCUGCCCUCAGAGCUCGAGAACAUCUUCGGAUGCAGAGGAGGCAGGCUUCGGUGGCGCGAUAGCGCCAACGUCCUCAAACUUCAAUGCAUCCCUCCACAUGAUGGUGCCUGAAGAGCCUUGGUUUUUUG [A5U C85A C88U A100U A111G] | -2.1
GACCAAUCUGCCCUCAGAGCUCGAGAACAUCUUCGGAUGCAGAGGAGGCAGGCUUCGGUGGUGCGAUAGCGCCAACGUCCUCAACCUCCAAUGCAUCUCACCACAUGAUGUUGCCUGAACAGCCUUGGUUUUUUG [C62U C98U A111U G120C] | -4.23
GACCAAUUUGCCCUCAGAGCUCGAGAAUAUCUUCGGAUGCAGAGGAGGCAGGCUUCGGUGGCGCGAUAGCGCCAACGUCCUCAACCUCCAAUGCAUCCCACCACAUGAUGAUGCCAGAAGAGCCUUGGUUUUUUG [C8U C28U U116A] | -3.54
GACCAAUCUGCCCUCAGAGUUCGAGAACAUCUUCGGAUGCAGAGGAGGCAGGCUUCGGUGGCGCGAUAGCGCCAACGUCCUCAACCUCCAAUUCAUCCCACCACAUGAUGAUGCCUGAAGAGCCUUGGUUUUUUG [C20U G93U] | -3.35
GACCAAUCUGCCCUCAGAGCUCGAGAACAUCUUCGGAUGCAGAGGAGGCAGACUUGGGUGGCGCGAUAGCGCCAACGUCCUCAACCUCCAAUGCAGCCCACCACAUGAUGAUGCCUGAAGAGCCUUGGUUUUUUG [G52A C56G U96G] | -1.35
GACCAAUCUGCCCUCAGAGCUCGAGAACAUCUUCGGAUGCAGAGGAGGCAGGCUUAGGUGGCGCGAUAGCGCCAACGUCCUCAACCUCCAAUGCAUCCCACCACAUGAUGAUGCCUGAUGAGCCUUGGUUUUUUG [C56A A119U] | -1.36
GACCAAUCUGCCCUCAGAGCUCGAGAACAUCUUCGGAUGCAGAGGAGGCAGGCUUCGGUGGCGCGAUAUGGCCAACGUCCUCAACCGCCAAUGCAUCCCACCACAUGAUGAUGCCUAAAGAGCCUUGGUUUUUUG [G69U C70G U87G G117A] | -1.97
